Measurements reported in patent US8697349.

B1: synthetic peptide IST … (peptide)
peptide: ISTAIAAIAAAI
B2: synthetic peptide VAT … (peptide)
peptide: VATAIAAIAAAI
B3: synthetic peptide FAA … (peptide)
peptide: FAAAIAAIAAAI
B4: synthetic peptide WAT … (peptide)
peptide: WATAIAAIAAAI
B5: synthetic peptide IVS … (peptide)
peptide: IVSAIAAIAAAI
B6: synthetic peptide VAA … (peptide)
peptide: VAAAIAAIAAAI
B7: synthetic peptide QAA … (peptide)
peptide: QAAAIAAIAAAI
B8: synthetic peptide ITS … (peptide)
peptide: ITSAIAAIAAAI
B9: synthetic peptide INS … (peptide)
peptide: INSAIAAIAAAI
B10: synthetic peptide IAI … (peptide)
peptide: IAIAIAAIAAAI
B11: synthetic peptide PAT … (peptide)
peptide: PATAIAAIAAAI
B12: synthetic peptide PAA … (peptide)
peptide: PAAAIAAIAAAI
B13: synthetic peptide FAT … (peptide)
peptide: FATAIAAIAAAI
B14: synthetic peptide IQS … (peptide)
peptide: IQSAIAAIAAAI
B15: synthetic peptide AAA … (peptide)
peptide: AAAAIAAIAAAI
B16: synthetic peptide IAY … (peptide)
peptide: IAYAIAAIAAAI
B17: synthetic peptide IPT … (peptide)
peptide: IPTAIAAIAAAI
B18: synthetic peptide ISS … (peptide)
peptide: ISSAIAAIAAAI
B19: synthetic peptide IAS … (peptide)
peptide: IASAIAAIAAAI
B20: synthetic peptide LAT … (peptide)
peptide: LATAIAAIAAAI
B21: synthetic peptide IQT … (peptide)
peptide: IQTAIAAIAAAI
B22: synthetic peptide IAE … (peptide)
peptide: IAEAIAAIAAAI
B23: synthetic peptide IIT … (peptide)
peptide: IITAIAAIAAAI
B24: synthetic peptide ITT … (peptide)
peptide: ITTAIAAIAAAI
B25: synthetic peptide IMT … (peptide)
peptide: IMTAIAAIAAAI
B26: synthetic peptide IAT … (peptide)
peptide: IATAIAAIAAAI
B27: synthetic peptide LAA … (peptide)
peptide: LAAAIAAIAAAI
B28: synthetic peptide ATA … (peptide)
peptide: ATAAIAAIAAAI
B29: synthetic peptide AAT … (peptide)
peptide: AATAIAAIAAAI
B30: synthetic peptide IHT … (peptide)
peptide: IHTAIAAIAAAI
B31: synthetic peptide IAA … (peptide)
peptide: IAAAIAAIAAAI
B32: synthetic peptide IGS … (peptide)
peptide: IGSAIAAIAAAI

Target: Cy5-labeled Goat anti mouse IgG (AP127S, available from CHEMICON International Inc.) (goat)
Experiment: Cy5 fluorescence of antibody at peptide spot on AZO film after 17 h light irradiation, array scanner; reference: water instead of peptide

| fixability, fold over Comparative Example 1 | Molecule |
| --- | --- |
| > 10 fold | B1 |
| > 10 fold | B2 |
| > 10 fold | B3 |
| > 10 fold | B4 |
| > 10 fold | B5 |
| > 10 fold | B6 |
| > 10 fold | B7 |
| > 10 fold | B8 |
| > 10 fold | B9 |
| > 10 fold | B10 |
| > 10 fold | B11 |
| > 10 fold | B12 |
| > 10 fold | B13 |
| > 10 fold | B14 |
| > 10 fold | B15 |
| > 10 fold | B16 |

| fixability, fold over Comparative Example 1 | Molecule |
| --- | --- |
| > 10 fold | B17 |
| > 10 fold | B18 |
| > 10 fold | B19 |
| > 10 fold | B20 |
| > 10 fold | B21 |
| > 10 fold | B22 |
| > 10 fold | B23 |
| > 10 fold | B24 |
| > 10 fold | B25 |
| > 10 fold | B26 |
| > 10 fold | B27 |
| > 10 fold | B28 |
| > 10 fold | B29 |
| > 10 fold | B30 |
| > 10 fold | B31 |
| > 10 fold | B32 |

Target: Cy5-labeled Goat anti mouse IgG (AP127S, available from CHEMICON International Inc.) (goat)
Experiment: Rabbit anti goat IgG fixed on AZO film via synthetic peptides, probed with Cy5-labeled goat IgG, array scanner; reference: antibody directly light-fixed

| immobilized antibody activity, fold over Comparative Example 2 | Molecule |
| --- | --- |
| 3 to 30 fold | anti goat IgG rabbit-IgG (A50-100A, available from Bethyl Laboratories, Inc.) (antibody) |
